Data reported in patent publication US20240279278A1, “NMU RECEPTOR 2 AGONISTS” (Boehringer Ingelheim International GmbH, priority 2023, published 2024).

B1: C20DA-gGlu3-Sar15-AEPipAc-Tyr-Phe-NMeLeu-Nle-Orn-Pro-Arg-Gly-NH2 (peptide)
peptide: EEEXXXXXXXXXXXXXXXXYFLXXPRG
HELM: PEPTIDE1{[O=C(O)CCCCCCCCCCCCCCCCCCC(=O)[*:2]].[gGlu].[gGlu].[gGlu].[Sar].[Sar].[Sar].[Sar].[Sar].[Sar].[Sar].[Sar].[Sar].[Sar].[Sar].[Sar].[Sar].[Sar].[Sar].[O=C(CN1CCN(CCN[*:1])CC1)[*:2]].Y.F.[meL].[Nle].[Orn].P.R.G.[am]}$$$$V2.0
SMILES: CCCC[C@H](NC(=O)[C@H](CC(C)C)N(C)C(=O)[C@H](Cc1ccccc1)NC(=O)[C@H](Cc1ccc(O)cc1)NC(=O)CN1CCN(CCNC(=O)CN(C)C(=O)CN(C)C(=O)CN(C)C(=O)CN(C)C(=O)CN(C)C(=O)CN(C)C(=O)CN(C)C(=O)CN(C)C(=O)CN(C)C(=O)CN(C)C(=O)CN(C)C(=O)CN(C)C(=O)CN(C)C(=O)CN(C)C(=O)CN(C)C(=O)CC[C@H](NC(=O)CC[C@H](NC(=O)CC[C@H](NC(=O)CCCCCCCCCCCCCCCCCCC(=O)O)C(=O)O)C(=O)O)C(=O)O)CC1)C(=O)N[C@@H](CCCN)C(=O)N1CCC[C@H]1C(=O)N[C@@H](CCCNC(=N)N)C(=O)NCC(N)=O
B2: C18DA-gGlu3-Sar12-AEPipAc-Tyr-Phe-NMeLeu-Nle-Dbu-NMeAla-Arg-Gly-NH2 (peptide)
peptide: EEEXXXXXXXXXXXXXYFLXXARG
HELM: PEPTIDE1{[O=C(O)CCCCCCCCCCCCCCCCC(=O)[*:2]].[gGlu].[gGlu].[gGlu].[Sar].[Sar].[Sar].[Sar].[Sar].[Sar].[Sar].[Sar].[Sar].[Sar].[Sar].[Sar].[O=C(CN1CCN(CCN[*:1])CC1)[*:2]].Y.F.[meL].[Nle].[Dab].[meA].R.G.[am]}$$$$V2.0
SMILES: CCCC[C@H](NC(=O)[C@H](CC(C)C)N(C)C(=O)[C@H](Cc1ccccc1)NC(=O)[C@H](Cc1ccc(O)cc1)NC(=O)CN1CCN(CCNC(=O)CN(C)C(=O)CN(C)C(=O)CN(C)C(=O)CN(C)C(=O)CN(C)C(=O)CN(C)C(=O)CN(C)C(=O)CN(C)C(=O)CN(C)C(=O)CN(C)C(=O)CN(C)C(=O)CN(C)C(=O)CC[C@H](NC(=O)CC[C@H](NC(=O)CC[C@H](NC(=O)CCCCCCCCCCCCCCCCC(=O)O)C(=O)O)C(=O)O)C(=O)O)CC1)C(=O)N[C@@H](CCN)C(=O)N(C)[C@@H](C)C(=O)N[C@@H](CCCNC(=N)N)C(=O)NCC(N)=O
B3: C20DA-gGlu3-Sar15-AEPipAc-Tyr-Phe-NMeLeu-Nle-Dbu-Pro-Arg-Gly-NH2 (peptide)
peptide: EEEXXXXXXXXXXXXXXXXYFLXXPRG
HELM: PEPTIDE1{[O=C(O)CCCCCCCCCCCCCCCCCCC(=O)[*:2]].[gGlu].[gGlu].[gGlu].[Sar].[Sar].[Sar].[Sar].[Sar].[Sar].[Sar].[Sar].[Sar].[Sar].[Sar].[Sar].[Sar].[Sar].[Sar].[O=C(CN1CCN(CCN[*:1])CC1)[*:2]].Y.F.[meL].[Nle].[Dab].P.R.G.[am]}$$$$V2.0
SMILES: CCCC[C@H](NC(=O)[C@H](CC(C)C)N(C)C(=O)[C@H](Cc1ccccc1)NC(=O)[C@H](Cc1ccc(O)cc1)NC(=O)CN1CCN(CCNC(=O)CN(C)C(=O)CN(C)C(=O)CN(C)C(=O)CN(C)C(=O)CN(C)C(=O)CN(C)C(=O)CN(C)C(=O)CN(C)C(=O)CN(C)C(=O)CN(C)C(=O)CN(C)C(=O)CN(C)C(=O)CN(C)C(=O)CN(C)C(=O)CN(C)C(=O)CC[C@H](NC(=O)CC[C@H](NC(=O)CC[C@H](NC(=O)CCCCCCCCCCCCCCCCCCC(=O)O)C(=O)O)C(=O)O)C(=O)O)CC1)C(=O)N[C@@H](CCN)C(=O)N1CCC[C@H]1C(=O)N[C@@H](CCCNC(=N)N)C(=O)NCC(N)=O
B4: C20DA-gGlu3-Sar15-AEPipAc-Tyr-Phe-NMeLeu-Nle-Orn-bAla-Arg-Gly-NH2 (peptide)
peptide: EEEXXXXXXXXXXXXXXXXYFLXXXRG
HELM: PEPTIDE1{[O=C(O)CCCCCCCCCCCCCCCCCCC(=O)[*:2]].[gGlu].[gGlu].[gGlu].[Sar].[Sar].[Sar].[Sar].[Sar].[Sar].[Sar].[Sar].[Sar].[Sar].[Sar].[Sar].[Sar].[Sar].[Sar].[O=C(CN1CCN(CCN[*:1])CC1)[*:2]].Y.F.[meL].[Nle].[Orn].[bAla].R.G.[am]}$$$$V2.0
SMILES: CCCC[C@H](NC(=O)[C@H](CC(C)C)N(C)C(=O)[C@H](Cc1ccccc1)NC(=O)[C@H](Cc1ccc(O)cc1)NC(=O)CN1CCN(CCNC(=O)CN(C)C(=O)CN(C)C(=O)CN(C)C(=O)CN(C)C(=O)CN(C)C(=O)CN(C)C(=O)CN(C)C(=O)CN(C)C(=O)CN(C)C(=O)CN(C)C(=O)CN(C)C(=O)CN(C)C(=O)CN(C)C(=O)CN(C)C(=O)CN(C)C(=O)CC[C@H](NC(=O)CC[C@H](NC(=O)CC[C@H](NC(=O)CCCCCCCCCCCCCCCCCCC(=O)O)C(=O)O)C(=O)O)C(=O)O)CC1)C(=O)N[C@@H](CCCN)C(=O)NCCC(=O)N[C@@H](CCCNC(=N)N)C(=O)NCC(N)=O
B5: C20DA-gGlu3-Sar15-AEPipAc-Tyr-Phe-NMeLeu-Nle-Orn-Gly-Arg-Gly-NH2 (peptide)
peptide: EEEXXXXXXXXXXXXXXXXYFLXXGRG
HELM: PEPTIDE1{[O=C(O)CCCCCCCCCCCCCCCCCCC(=O)[*:2]].[gGlu].[gGlu].[gGlu].[Sar].[Sar].[Sar].[Sar].[Sar].[Sar].[Sar].[Sar].[Sar].[Sar].[Sar].[Sar].[Sar].[Sar].[Sar].[O=C(CN1CCN(CCN[*:1])CC1)[*:2]].Y.F.[meL].[Nle].[Orn].G.R.G.[am]}$$$$V2.0
SMILES: CCCC[C@H](NC(=O)[C@H](CC(C)C)N(C)C(=O)[C@H](Cc1ccccc1)NC(=O)[C@H](Cc1ccc(O)cc1)NC(=O)CN1CCN(CCNC(=O)CN(C)C(=O)CN(C)C(=O)CN(C)C(=O)CN(C)C(=O)CN(C)C(=O)CN(C)C(=O)CN(C)C(=O)CN(C)C(=O)CN(C)C(=O)CN(C)C(=O)CN(C)C(=O)CN(C)C(=O)CN(C)C(=O)CN(C)C(=O)CN(C)C(=O)CC[C@H](NC(=O)CC[C@H](NC(=O)CC[C@H](NC(=O)CCCCCCCCCCCCCCCCCCC(=O)O)C(=O)O)C(=O)O)C(=O)O)CC1)C(=O)N[C@@H](CCCN)C(=O)NCC(=O)N[C@@H](CCCNC(=N)N)C(=O)NCC(N)=O
B6: C20DA-gGlu4-Sar12-AEPipAc-Tyr-Phe-NMeLeu-Nle-Lys-Pro-Arg-Gly-NH2 (peptide)
peptide: EEEEXXXXXXXXXXXXXYFLXKPRG
HELM: PEPTIDE1{[O=C(O)CCCCCCCCCCCCCCCCCCC(=O)[*:2]].[gGlu].[gGlu].[gGlu].[gGlu].[Sar].[Sar].[Sar].[Sar].[Sar].[Sar].[Sar].[Sar].[Sar].[Sar].[Sar].[Sar].[O=C(CN1CCN(CCN[*:1])CC1)[*:2]].Y.F.[meL].[Nle].K.P.R.G.[am]}$$$$V2.0
SMILES: CCCC[C@H](NC(=O)[C@H](CC(C)C)N(C)C(=O)[C@H](Cc1ccccc1)NC(=O)[C@H](Cc1ccc(O)cc1)NC(=O)CN1CCN(CCNC(=O)CN(C)C(=O)CN(C)C(=O)CN(C)C(=O)CN(C)C(=O)CN(C)C(=O)CN(C)C(=O)CN(C)C(=O)CN(C)C(=O)CN(C)C(=O)CN(C)C(=O)CN(C)C(=O)CN(C)C(=O)CC[C@H](NC(=O)CC[C@H](NC(=O)CC[C@H](NC(=O)CC[C@H](NC(=O)CCCCCCCCCCCCCCCCCCC(=O)O)C(=O)O)C(=O)O)C(=O)O)C(=O)O)CC1)C(=O)N[C@@H](CCCCN)C(=O)N1CCC[C@H]1C(=O)N[C@@H](CCCNC(=N)N)C(=O)NCC(N)=O
B7: C20DA-gGlu4-Sar15-AEPipAc-Tyr-Phe-NMeLeu-Nle-Orn-Pro-Arg-Gly-NH2 (peptide)
peptide: EEEEXXXXXXXXXXXXXXXXYFLXXPRG
HELM: PEPTIDE1{[O=C(O)CCCCCCCCCCCCCCCCCCC(=O)[*:2]].[gGlu].[gGlu].[gGlu].[gGlu].[Sar].[Sar].[Sar].[Sar].[Sar].[Sar].[Sar].[Sar].[Sar].[Sar].[Sar].[Sar].[Sar].[Sar].[Sar].[O=C(CN1CCN(CCN[*:1])CC1)[*:2]].Y.F.[meL].[Nle].[Orn].P.R.G.[am]}$$$$V2.0
SMILES: CCCC[C@H](NC(=O)[C@H](CC(C)C)N(C)C(=O)[C@H](Cc1ccccc1)NC(=O)[C@H](Cc1ccc(O)cc1)NC(=O)CN1CCN(CCNC(=O)CN(C)C(=O)CN(C)C(=O)CN(C)C(=O)CN(C)C(=O)CN(C)C(=O)CN(C)C(=O)CN(C)C(=O)CN(C)C(=O)CN(C)C(=O)CN(C)C(=O)CN(C)C(=O)CN(C)C(=O)CN(C)C(=O)CN(C)C(=O)CN(C)C(=O)CC[C@H](NC(=O)CC[C@H](NC(=O)CC[C@H](NC(=O)CC[C@H](NC(=O)CCCCCCCCCCCCCCCCCCC(=O)O)C(=O)O)C(=O)O)C(=O)O)C(=O)O)CC1)C(=O)N[C@@H](CCCN)C(=O)N1CCC[C@H]1C(=O)N[C@@H](CCCNC(=N)N)C(=O)NCC(N)=O
B8: C20DA-gGlu4-Sar12-AEPipAc-Tyr-Phe-NMeLeu-Nle-Dbu-NMeAla-Arg-Gly-NH2 (peptide)
peptide: EEEEXXXXXXXXXXXXXYFLXXARG
HELM: PEPTIDE1{[O=C(O)CCCCCCCCCCCCCCCCCCC(=O)[*:2]].[gGlu].[gGlu].[gGlu].[gGlu].[Sar].[Sar].[Sar].[Sar].[Sar].[Sar].[Sar].[Sar].[Sar].[Sar].[Sar].[Sar].[O=C(CN1CCN(CCN[*:1])CC1)[*:2]].Y.F.[meL].[Nle].[Dab].[meA].R.G.[am]}$$$$V2.0
SMILES: CCCC[C@H](NC(=O)[C@H](CC(C)C)N(C)C(=O)[C@H](Cc1ccccc1)NC(=O)[C@H](Cc1ccc(O)cc1)NC(=O)CN1CCN(CCNC(=O)CN(C)C(=O)CN(C)C(=O)CN(C)C(=O)CN(C)C(=O)CN(C)C(=O)CN(C)C(=O)CN(C)C(=O)CN(C)C(=O)CN(C)C(=O)CN(C)C(=O)CN(C)C(=O)CN(C)C(=O)CC[C@H](NC(=O)CC[C@H](NC(=O)CC[C@H](NC(=O)CC[C@H](NC(=O)CCCCCCCCCCCCCCCCCCC(=O)O)C(=O)O)C(=O)O)C(=O)O)C(=O)O)CC1)C(=O)N[C@@H](CCN)C(=O)N(C)[C@@H](C)C(=O)N[C@@H](CCCNC(=N)N)C(=O)NCC(N)=O

target: T1, human neuromedin U receptor 1 (human, UniProt Q9HB89 24-426); assay: cell-based or functional assay
T1 sequence (looked up): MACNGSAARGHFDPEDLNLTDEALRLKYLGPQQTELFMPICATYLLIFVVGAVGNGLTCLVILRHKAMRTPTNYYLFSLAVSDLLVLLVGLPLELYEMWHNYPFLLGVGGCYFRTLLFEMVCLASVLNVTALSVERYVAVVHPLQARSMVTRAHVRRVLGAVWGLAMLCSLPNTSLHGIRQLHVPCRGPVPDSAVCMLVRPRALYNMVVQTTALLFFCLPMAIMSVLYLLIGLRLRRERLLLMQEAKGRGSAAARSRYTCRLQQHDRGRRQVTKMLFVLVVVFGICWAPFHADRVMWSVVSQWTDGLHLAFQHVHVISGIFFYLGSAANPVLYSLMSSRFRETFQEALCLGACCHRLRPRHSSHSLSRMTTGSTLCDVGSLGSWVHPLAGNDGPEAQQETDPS

First: B1
Second: B2
The EC50 (hNMUR1) buffer of the first is lower: 0.89 µM for the first, over 1 µM for the second.

B3 gave an EC50 (hNMUR1) buffer of 1.5 µM.

target: T1, human neuromedin U receptor 1; assay: cell-based or functional assay; remark: another data set of the same source

B4 and B5 cannot be ordered by “EC50 (hNMUR1) buffer” value: over 1 µM for the first, over 1 µM for the second.

Going from B6 to B7, the “EC50 (hNMUR1) buffer” value falls from 1.2 µM to 0.44 µM (2.7-fold).

B8 was tested, and the “EC50 (hNMUR1) buffer” value was over 1 µM.
